# According to patent US20140056908:
# Biological target: T1, malaria vaccine candidate protein Pfs48 with PR-1a signal peptide, 6xHis tag and KDEL
# T1 chain: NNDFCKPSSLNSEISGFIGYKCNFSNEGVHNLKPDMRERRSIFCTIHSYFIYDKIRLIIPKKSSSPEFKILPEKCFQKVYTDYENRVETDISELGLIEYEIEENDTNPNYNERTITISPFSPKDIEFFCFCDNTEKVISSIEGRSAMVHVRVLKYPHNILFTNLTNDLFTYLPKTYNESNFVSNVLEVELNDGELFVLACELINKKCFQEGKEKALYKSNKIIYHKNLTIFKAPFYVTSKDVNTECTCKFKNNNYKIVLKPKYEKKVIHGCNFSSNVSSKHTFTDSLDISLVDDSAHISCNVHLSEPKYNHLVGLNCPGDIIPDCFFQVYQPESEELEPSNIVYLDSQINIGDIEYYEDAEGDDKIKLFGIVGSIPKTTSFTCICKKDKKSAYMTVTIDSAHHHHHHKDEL
protein,measurement,value
"endoglycosidase F from Elizabethkingia meningoseptica (PNGaseF) with PR-1a signal peptide, FLAG tag and KDEL (protein) APADNTVNIKTFDKVKNAFGDGLSQSAEGTFTFPADVTTVKTIKMFIKNECPNKTCDEWDRYANVYVKNKTTGEWYEIGRFITPYWVGTEKLPRGLEIDVTDFKSLLSGNTELKIYTETCLAKGREYSVDFDIVYGTPDYKYSAVVPVIQYNKSSIDGVPYGKAHTLGLKKNIQLPTNTEKAYLRTTISGWGHAKPYDAGSRGCAEWCFRTHTIAINNANTFQHQLGALGCSANPINNQSPGNWAPDRAGWCPGMAVPTRIDVLNNSLTGSTFSYEYKFQSWTNNGTNGDAFYAISSFVIAKSNTPISAPVVTNDYKDDDDKDEL",electrophoretic mobility of Pfs48 on Western blot (deglycosylation on co-expression in planta),"the electrophoretic mobility of the glycosylated Pfs48 (control, which was expressed w/o PNGaseF) was different (less mobility) compared to the non-glycosylated form of Pfs48 that was co-expressed with PNGaseF"
